One may read the stoichiometry N as the number of molecules, sites or subunits per partner or assembly. What is called Kd is a measure of binding affinity in units of concentration. The kon is the second-order rate constant of association.

The source of these data is publication PMC7076219.

The target of test [1] is E-S6-IgG (mouse E-selectin extracellular region fused to the Fc region of human IgG1, from silkworm) (mouse | human) (UniProt Q00690). Description: native gel or EMSA; purified E-selectin proteins in native PAGE sample buffer on a 10% TBE gel, Tris-glycine buffer, Coomassie stain.
The target of test [2] is ligands on KG1a cells (human (endogenous in KG1a)). As to the kind of experiment: flow cytometry on cells; KG1a cells stained with 10 ug/ml E-selectin protein in HBSS with 5% FBS and 2 mM CaCl2, 4 °C, 20 min; detected by Strep-tag II mAb and PE anti-mouse IgG1.
Test [3] concerns the target CD44/HCELL (hematopoietic cell E- and/or L-selectin ligand) (human (endogenous in KG1a)) (UniProt P16070). As to the kind of experiment: SPR; Biacore T-100, CM5 chip, 25 °C; CD44/HCELL captured from KG1a lysate by immobilised Hermes-3; E-selectin proteins injected in sequential concentrations at 20 ul/min, 90 s each; running buffer 50 mM Tris pH 8.0, 1% Triton X-100, 50 mM NaCl, 1 mM CaCl2; isotype control subtracted; kon calculated from KD and koff.

Chain of CD44/HCELL (hematopoietic cell E- and/or L-selectin ligand) (human (endogenous in KG1a)) (P16070 other isoform, or with tags, fused parts or gaps): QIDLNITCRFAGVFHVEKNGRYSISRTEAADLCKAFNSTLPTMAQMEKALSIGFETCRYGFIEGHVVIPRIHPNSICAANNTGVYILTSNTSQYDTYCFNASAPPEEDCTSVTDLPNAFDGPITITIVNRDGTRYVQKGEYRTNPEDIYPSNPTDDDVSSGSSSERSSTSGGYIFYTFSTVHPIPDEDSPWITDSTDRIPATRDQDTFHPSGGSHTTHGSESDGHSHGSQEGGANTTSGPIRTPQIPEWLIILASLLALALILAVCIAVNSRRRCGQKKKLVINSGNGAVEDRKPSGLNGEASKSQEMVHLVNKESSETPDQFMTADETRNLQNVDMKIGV

For the substance “E-S6-IgG (mouse E-selectin extracellular region fused to the Fc region of human IgG1, from silkworm) (from UniProt Q00690 22-557) (Fc fusion)”, the stoichiometry N in test [1] came out at 2. For the same substance, the percent of the live KG1a population bound in test [2] was found to be 96%. In test [3], the dissociation constant Kd was 0.17 µM and the kon is 950 M⁻¹ s⁻¹.
For the substance “E-S2-A28H (E-S2 with the A28H mutation in the lectin domain) (domain or fragment)”, in test [2], the fluorescence signal (geometric mean) was 1690; the fluorescence signal, fold lower than E-S6 was 2 fold; the percent of the live KG1a population bound came to 84%. Also, in test [3], the Kd was 2.5 µM and the kon is 80 M⁻¹ s⁻¹.
In test [2], “E-S2 (truncated mouse E-selectin with only the first two SCR domains) (domain or fragment)” returned a fluorescence signal, fold lower than E-S6 of 3 fold and a percent of the live KG1a population bound of 76%. For the same substance, in test [3], the dissociation constant Kd was 5.68 µM and the kon is 30 M⁻¹ s⁻¹.
The substance “E-S0 (mouse E-selectin lectin and EGF domains, no SCR domains) (domain or fragment)” returned a percent of the live KG1a population bound in test [2] of 43%. In addition, in test [3], the equilibrium dissociation constant (Kd) was 17.2 µM and the kon is 4 M⁻¹ s⁻¹.
